Patent publication US20200148732A1 (UNIVERSITY OF COPENHAGEN, published 2020)

Assays:
GFP-TONSL E530A = target: T1, GFP-TONSL E530A (Homo sapiens, UniProt Q96HA7 1-1378); experiment: GFP immunoprecipitation of GFP-TONSL from transfected HeLa S3 cells, western blot (co-IP; association may be indirect)
T1 construct: also called TONSL E530A / GFP; not shown: N-terminal GFP tag
T1 sequence: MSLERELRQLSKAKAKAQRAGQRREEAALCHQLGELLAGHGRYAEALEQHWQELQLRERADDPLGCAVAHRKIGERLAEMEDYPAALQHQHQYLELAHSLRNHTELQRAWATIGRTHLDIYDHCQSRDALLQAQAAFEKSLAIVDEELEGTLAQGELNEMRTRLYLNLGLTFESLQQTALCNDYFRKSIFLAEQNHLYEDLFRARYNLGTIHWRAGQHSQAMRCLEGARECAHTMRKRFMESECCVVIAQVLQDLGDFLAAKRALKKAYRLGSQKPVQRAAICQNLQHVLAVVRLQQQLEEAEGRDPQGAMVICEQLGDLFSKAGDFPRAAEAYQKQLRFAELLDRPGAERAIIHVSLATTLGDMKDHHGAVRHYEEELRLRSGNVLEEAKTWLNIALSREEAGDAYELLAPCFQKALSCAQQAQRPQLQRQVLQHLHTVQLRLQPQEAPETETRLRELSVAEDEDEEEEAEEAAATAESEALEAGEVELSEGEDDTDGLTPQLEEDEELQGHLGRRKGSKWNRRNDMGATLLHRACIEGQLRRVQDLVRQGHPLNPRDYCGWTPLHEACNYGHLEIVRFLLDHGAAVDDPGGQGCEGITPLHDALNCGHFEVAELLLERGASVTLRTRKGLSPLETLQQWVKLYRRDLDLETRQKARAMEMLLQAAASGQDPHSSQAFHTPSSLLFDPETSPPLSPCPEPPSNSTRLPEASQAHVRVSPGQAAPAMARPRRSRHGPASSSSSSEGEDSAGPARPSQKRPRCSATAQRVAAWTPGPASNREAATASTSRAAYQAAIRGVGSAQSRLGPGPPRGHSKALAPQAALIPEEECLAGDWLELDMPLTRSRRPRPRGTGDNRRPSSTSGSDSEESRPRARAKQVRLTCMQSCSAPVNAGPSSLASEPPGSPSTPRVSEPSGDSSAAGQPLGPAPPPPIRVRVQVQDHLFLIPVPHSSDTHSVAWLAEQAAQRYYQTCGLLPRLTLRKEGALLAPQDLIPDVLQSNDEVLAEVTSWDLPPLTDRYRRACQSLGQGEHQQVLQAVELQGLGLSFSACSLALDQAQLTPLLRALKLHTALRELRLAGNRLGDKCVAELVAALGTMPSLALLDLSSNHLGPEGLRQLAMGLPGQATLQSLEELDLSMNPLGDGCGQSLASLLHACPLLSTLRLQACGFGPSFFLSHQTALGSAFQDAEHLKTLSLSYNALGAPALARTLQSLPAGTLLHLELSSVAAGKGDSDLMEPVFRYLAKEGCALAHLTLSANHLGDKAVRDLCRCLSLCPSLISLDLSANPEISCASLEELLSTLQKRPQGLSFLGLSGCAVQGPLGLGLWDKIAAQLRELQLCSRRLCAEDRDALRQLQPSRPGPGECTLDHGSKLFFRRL

GFP-TONSL W563A = target: T2, GFP-TONSL W563A (Homo sapiens, UniProt Q96HA7 1-1378); experiment: as above
T2 construct: also called TONSL W563A / GFP; not shown: N-terminal GFP tag
T2 sequence: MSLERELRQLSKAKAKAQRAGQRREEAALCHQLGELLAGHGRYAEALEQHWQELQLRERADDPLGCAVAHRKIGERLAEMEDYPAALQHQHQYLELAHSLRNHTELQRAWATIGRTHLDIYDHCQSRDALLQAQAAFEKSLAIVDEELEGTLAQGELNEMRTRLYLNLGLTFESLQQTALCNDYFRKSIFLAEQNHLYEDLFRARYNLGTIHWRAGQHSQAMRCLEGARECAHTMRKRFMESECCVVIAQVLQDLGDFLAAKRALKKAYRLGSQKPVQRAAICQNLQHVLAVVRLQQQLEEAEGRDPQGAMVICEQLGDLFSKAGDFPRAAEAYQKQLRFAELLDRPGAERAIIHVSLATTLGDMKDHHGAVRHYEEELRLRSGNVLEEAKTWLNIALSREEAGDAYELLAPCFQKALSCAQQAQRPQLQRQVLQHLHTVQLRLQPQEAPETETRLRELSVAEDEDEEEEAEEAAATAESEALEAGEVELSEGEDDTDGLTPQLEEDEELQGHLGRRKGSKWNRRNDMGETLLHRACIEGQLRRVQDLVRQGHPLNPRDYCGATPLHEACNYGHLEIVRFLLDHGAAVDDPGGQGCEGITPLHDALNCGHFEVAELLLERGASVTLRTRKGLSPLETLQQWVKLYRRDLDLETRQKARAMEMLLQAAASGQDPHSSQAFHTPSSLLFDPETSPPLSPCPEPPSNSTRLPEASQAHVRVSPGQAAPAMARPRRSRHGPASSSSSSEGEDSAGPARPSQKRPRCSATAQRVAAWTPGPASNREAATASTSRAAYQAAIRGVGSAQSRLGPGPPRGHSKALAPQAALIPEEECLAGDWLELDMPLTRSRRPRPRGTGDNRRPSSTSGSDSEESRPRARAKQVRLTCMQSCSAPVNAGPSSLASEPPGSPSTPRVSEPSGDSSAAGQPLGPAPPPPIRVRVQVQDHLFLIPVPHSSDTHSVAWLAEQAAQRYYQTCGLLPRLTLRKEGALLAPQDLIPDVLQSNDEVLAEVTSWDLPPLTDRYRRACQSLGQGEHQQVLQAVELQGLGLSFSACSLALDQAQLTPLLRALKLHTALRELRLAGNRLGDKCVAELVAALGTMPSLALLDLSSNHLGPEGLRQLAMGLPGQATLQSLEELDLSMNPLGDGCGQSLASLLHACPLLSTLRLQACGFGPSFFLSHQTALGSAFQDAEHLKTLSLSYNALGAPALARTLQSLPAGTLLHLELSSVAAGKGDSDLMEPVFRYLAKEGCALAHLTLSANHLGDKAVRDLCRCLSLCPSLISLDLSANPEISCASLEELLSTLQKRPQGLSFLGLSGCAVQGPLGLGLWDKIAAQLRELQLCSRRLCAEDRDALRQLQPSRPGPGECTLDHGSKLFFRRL

binding result (GFP-TONSL E530A): binds
binding result (GFP-TONSL W563A): binds
B1: MMS22L (endogenous, in cell extracts) (other, UniProt Q6ZRQ5 1-1243, looked up)
chain: MENCSAASTFLTDSLELELGTEWCKPPYFSCAVDNRGGGKHFSGESYLCSGALKRLILNLDPLPTNFEEDTLEIFGIQWVTETALVNSSRELFHLFRQQLYNLETLLQSSCDFGKVSTLHCKADNIRQQCVLFLHYVKVFIFRYLKVQNAESHVPVHPYEALEAQLPSVLIDELHGLLLYIGHLSELPSVNIGAFVNQNQIKLFPPSWHLLHLHLDIHWLVLEILYMLGEKLKQVVYGHQFMNLASDNLTNISLFEEHCETLLCDLISLSLNRYDKVRSSESLMSDQCPCLCIKELWVLLIHLLDHRSKWFVSESFWNWLNKLLKTLLEKSSDRRRSSMPVIQSRDPLGFSWWIITHVASFYKFDRHGVPDEMRKVESNWNFVEELLKKSISVQGVILEEQLRMYLHCCLTLCDFWEPNIAIVTILWEYYSKNLNSSFSISWLPFKGLANTMKSPLSMLEMVKTCCCDKQDQELYKSSSSYTIFLCILAKVVKKAMKSNGPHPWKQVKGRIYSKFHQKRMEELTEVGLQNFFSLFLLLAAVAEVEDVASHVLDLLNFLKPAFVTSQRALIWKGHMAFLLMYAQKNLDIGVLAEKFSCAFREKAKEFLVSKNEEMVQRQTIWTLLSIYIDGVQEVFETSYCLYPSHEKLLNDGFSMLLRACRESELRTVLSFLQAVLARIRSMHQQLCQELQRDNVDLFVQSSLSAKERHLAAVASALWRHFFSFLKSQRMSQVVPFSQLADAAADFTLLAMDMPSTAPSDFQPQPVISIIQLFGWDDIICPQVVARYLSHVLQNSTLCEALSHSGYVSFQALTVRSWIRCVLQMYIKNLSGPDDLLIDKNLEEAVEKEYMKQLVKLTRLLFNLSEVKSIFSKAQVEYLSISEDPKKALVRFFEAVGVTYGNVQTLSDKSAMVTKSLEYLGEVLKYIKPYLGKKVFSAGLQLTYGMMGILVKSWAQIFATSKAQKLLFRIIDCLLLPHAVLQQEKELPAPMLSAIQKSLPLYLQGMCIVCCQSQNPNAYLNQLLGNVIEQYIGRFLPASPYVSDLGQHPVLLALRNTATIPPISSLKKCIVQVIRKSYLEYKGSSPPPRLASILAFILQLFKETNTDIYEVELLLPGILKCLVLVSEPQVKRLATENLQYMVKACQVGSEEEPSSQLTSVFRQFIQDYGMRYYYQVYSILETVATLDQQVVIHLISTLTQSLKDSEQKWGLGRNIAQREAYSKLLSHLGQMGQDEMQRLENDNT
